*1 amine or outer side, *2 acyl side, *3 side chain or, on linkers, in order; H or OH if unused. Where a SMILES comes first, the peptide text is derived from it. Bridges are numbered along the chain shown (N, C = ends). [ ]: non-standard residue; d: D form. The star is where a group is joined. DOTA = O=C(O)CN1CCN(CC(=O)O)CCN(CC(=O)*)CCN(CC(=O)O)CC1; 1Nal = N[C@@H](Cc1cccc2ccccc12)C(=O)O; TBMB = c1c(C[*:1])cc(C[*:3])cc1C[*:2]; Tle = CC(C)(C)[C@H](N)C(=O)O
Key:
[1] = Organ distribution of 177Lu-labelled peptides in HT1080 xenograft mice; assay type: in vivo, BALB/c nu/nu mice; conditions: male, BALB/c nu/nu, mouse, HT1080 tumor, iv, total radioactivity; for tissue uptake at 1 h: 1 h p.i.
Protocol: (§1) General procedure for radiolabelling with Lu-177.
(§2) • 50 μL 0.25 M Na-Acetate buffer pH 5.2+0.1% Tween 20; • 10 μL [Lu-177]LuCl3 in 0.05 M HCl; and • 2 μL of the diluted peptide (2 nmols). […]
(§3) Organ distribution studies, general method: For organ distribution, the respective dose is prepared by dilution of the labeling reaction mixture in injection buffer (0.25 M Na-Acetate pH 7+0.05% Tween20). The ^177Lu-radiolabeled peptide was injected via the tail vein of the nu/nu mice (50 kBq per mouse), transplanted with the respective cell line. At indicated time points after injection the animals were sacrificed. Blood, heart, lung, spleen, liver, kidney, muscle, brain, femur, and the tumor were dissected, blotted dry, and weighed. The radioactivity was measured with a γ-counter (CobraII; Canberra Packard) along with a sample of the injection solution to calculate the percentage injected dose per gram of tissue (% ID/g).
(§4) The γ- and β-emitter ^177LuCl3 (NEZ307D, Perkin Elmer, in 0.04 M HCl), with a t1/2 of 6.7 days was used for both in vivo biodistribution and internalization studies. Labeling reactions were performed by adding 10 μL ^177LuCl3 (˜10 MBq) in 50 mM HCl, 2 μL of the diluted peptide (1 mM solution in 50 mM HEPES buffer pH 7+0.1% Tween 20 diluted from a 10 mM DMSO stock) to 50 μL 50 mM HEPES buffer pH 7 supplemented with 0.1% Tween 20. The reaction mixture was incubated at 98° C. for 10 minutes. The radiochemical yield (RCY) was determined using high performance liquid chromatography (HPLC) system equipped with a Latek P402 (Latek, Eppelheim, Germany), a HITACHI variable UV detector (absorbance was measured at 214 and 254 nm) and a gamma detector (Bioscan, WA, USA), using a Chromolith RP-18 column (100×4.6 mm; Merck). The analytical HPLC run was performed at 4 mL/min, using a linear A (0.1% trifluoroacetic acid (TFA) in water) to B (0.1% TFA in acetonitrile) gradient (0% B to 100% B in 6 min). Thin-layer chromatography was performed in parallel to confirm the results of the radio-HPLC. The RCY was generally >95%, and thus, the output of labelling reactions was directly diluted with the appropriate buffer and further unlabeled peptide if required, to use in subsequent experiments.
(§5) 5×10^6 cells of HT1080 were subcutaneously inoculated into the right trunk of male 6-week-old BALB/c nu/nu mice (Charles River Laboratories). The tumors were grown for approximately 1 week, to a maximum size of ˜200 mm^3. Respective doses were prepared by mixing a fixed quantity of 5 pmoles ^177Lu labelled peptides (at approx. 50 kBq) with different quantities of non-labelled peptide (derived from 1 mM stock solution in 0.25 M sodium acetate pH 7+0.05% Tween20) in 100 μL injection buffer (0.25 M sodium acetate pH 7+0.05% Tween20). 3 animals were used per dose and timepoint. Radiolabelled peptide solutions were injected via the tail vein, followed by sacrifice at various time points. Organs of interest (blood, heart, lung, spleen, liver, kidney, muscle, small intestine, brain, HT1080 tumor) were dissected, blotted dry, and weighed. The radioactivity was measured using a gamma counter and calculated as % ID/g.

HT1080 tumor = test: as above; assay type: in vivo, BALB/c nu/nu mice; conditions: 1 h post injection
Protocol: as §1, §2, §3, §4, §5

With C[C@H](NC(=O)CN1CCN(CC(=O)O)CCN(CC(=O)O)CCN(CC(=O)O)CC1)C(=O)N[C@H]1CSCc2cc3cc(c2)CSC[C@H](NC(=O)[C@@H](C)NC(=O)[C@H](Cc2cccc4ccccc24)NC(=O)[C@H](CCC(=O)O)NC(=O)[C@H](CC(N)=O)NC(=O)[C@@H](C)NC1=O)C(=O)N[C@@H](CCC(=O)O)C(=O)N[C@@H](CC(=O)O)C(=O)N[C@@H](Cc1ccccc1)C(=O)N[C@@H](Cc1ccc(O)cc1)C(=O)N[C@@H](CC(=O)O)C(=O)N[C@@H](C(C)(C)C)C(=O)N[C@H](C(N)=O)CSC3 [I-23] ({DOTA}-AC[dA]NE[1Nal][dA]CEDFYD[Tle]C-NH2; linker 2-8-15 via TBMB) as the molecule, how does the tissue uptake at 1 h ([1]; 50 kBq per mouse) read?
The tissue uptake at 1 h was 12 ± 2.37 %ID/g.

And the tissue uptake at 24 h ([1]; 50 kBq per mouse, 24 h p.i.)?
The tissue uptake at 24 h was 1.54 ± 0.06 %ID/g.

What about the tissue uptake at 1 h [1] of the same molecule?
The tissue uptake at 1 h was 12.4 %ID/g.

And the “blocking of tumor uptake at a dose of 500 pmoles” value (HT1080 tumor)?
The value was “slightly blocked”.

What about the “blocking of tumor uptake using 5 nmoles” value (HT1080 tumor) of the same molecule?
Its value is “nearly completely blocked”.

What about the “tumor uptake compared to 17-69-07-N144” value (HT1080 tumor) of the same molecule?
Its value is “significantly higher tumor uptake”.

From patent US12552837B2, “Bicyclic peptide ligands with detectable moieties and uses thereof” (BicycleRD Limited, priority 2017, dated 2026)
